Data reported in patent publication US20110312897A1 (ROCKEFELLER UNIVERSITY, published 2011).
Where no end group is shown, it is not given here.

Biological target: T1, cleaved H3 tail peptide (H3 22-37), methylated at K27 (not fully specified; also: K27 methylated, degree not given here, biotinylated, site not given here)
T1 construct: Mimics the H3 tail after cleavage between A21 and T22; also called cleaved peptide (amino acid residues 22-37)
T1 peptide: TKAARK(Me)SAPATGGVKK
Experiment: fluorescence anisotropy

fold decrease of binding against the non-cleaved peptide (residues 18-37): 3 fold
B1: chromodomain of mouse CBX7 (other, UniProt Q8VDS3 1-70, looked up)
chain: MELSAIGEQVFAVESIRKKRVRKGKVEYLVKWKGWPPKYSTWEPEEHILDPRLVMAYEEKEERDRASGYR
notes: domain: chromodomain; also called Cbx7-CD protein; chromodomain of Pc (mouse CBX7)
